Molecular target: T1, TNF (UniProt P01375 77-233)
T1 construct: also called TNF-α; Tumor Necrosis Factor-α
Assay: ELISA on solid-phase TNF (screen of the affinity maturation libraries)

T1 sequence (P01375 77-233 limits assumed): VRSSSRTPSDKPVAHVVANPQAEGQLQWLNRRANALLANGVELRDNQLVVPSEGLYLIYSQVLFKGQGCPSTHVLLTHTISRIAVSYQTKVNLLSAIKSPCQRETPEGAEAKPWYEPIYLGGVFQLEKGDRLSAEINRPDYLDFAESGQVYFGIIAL

Row | Binder | binding result
1 | Compound 100 (other, Domain antibody (dAb); also called anti-TNF dAb Compound 100) VL: DIQMTQSPSSLSASVGDRVTITCRASQSIDSYLHWYQQKPGKAPKLLIYSASNLETGVPSRFSGSGSGTDFTLTISSLLPEDFATYYCQQVVWRPFTFGQGTKVEIKR | binds
2 | Compound 123 (other, Domain antibody (dAb)) VL: DIQMTQSPSSLSASVGDRVTITCRASQAIDSYLHWYQQKPGKAPKLLIYSASNLETGVPSRFSGSGSGTDFTLTISSLQPEDFATYYCQQVVWRPFTFGQGTKVEIKR | binds
